# According to the domain aggregation screens of Martell et al. (2025):
# Experiment: soluble fraction after stress (log2 fold change); higher = more stays soluble; pooled small domains, quantitative proteomics
# Settings: stress: pH 4
# Outline: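 Aggregation propensity here comes from the fold change in the soluble amount of each small protein domain after acid stress, measured in pooled custom libraries by high-throughput quantitative proteomics. The acid stress was pH 4. On the log2 scale, higher values mean more of the domain stayed soluble.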
row,Sequence,soluble fraction (log2)
1,HMDVADITGTRKAAILLLTMDEELSKELLKEFERHEIEAIGKEIANIKYIPENIVKQVHSEFLKNINKS,-0.752
2,HMNLYERFPIHELWKETFNETLDEEEHITFITSEFKPENIVLGQGFIAAPSKKDAVDWLKVIRTVLIFYDS,-1.61
3,HMNGTEAIRRYIDQFASKHATTPRMLKLNERKQLIQELKNNGLLEIKKAVETVAQHLGISRASAYLYVKE,≥ 0.43
4,HMDKSFLQSLHLIALGIVKNQMDPWELVNGWVEYYLKNKDKYIDHPNLKAVAVLKMKGLFIDHFRKS,-2.21
5,HMIALLRLGTAPDIKAQAPLATILARHNGEMSAKDLWQRFGGEIDTFYAQLKTEVAHGWILEPT,0.0698
6,HMILKQTHIVQELTGPIRLQEYGVGIFQQISTKSALKKALKKNQITVDGVVGSTATFIKGGEIIIYHVTE,-1.68
7,HMVAVSQEEATKMALERVSGASAQDIRIQLEFDDGIQKYEGDIIYNGREYEFEIDANTGTFLEWSEERA,≥ 0.43
8,HMRISLKAQVYEYLKQAIINGDLKVGEIYSEQYFADKLSISRTPVREAILQLQHENMVEVKANRGIIVK,-0.406
9,HMSVSVEEDADGRVWVYYQDQKMDITDLFDENGVYGFNLEKGDRTVYVEVTKNADGTYSFTQTD,-1.34
10,HMDGVYLKSLKQTEQHIHWSGYAQSNAWVSTLMRNLDASPWFESPLLIEIKAATINNSRSNEFDLNVRL,0.102
11,HMNNIIEQIKADIKKLEEKLDKSSENALNKLEKDYSSLSTESKKKLDDAGYGARIKALRVKFAALSTQ,≥ 0.43
12,HMSVLQGLIESFKAGDRNLYEVAERLNVTEPFLAEALKDYRARFPKGVQVDNFWISFRPYLTIAEV,-0.886
13,HMVVPSNPDELKGSFSLAEVASGYGLEVAAILEKAGWPADTDPNVKMRDAANAIGRDSTDIRNAVKALLKS,-0.468
14,HMKIDLTPQEEKIYSVLETELTLDEIIMKTSIKAGEALAILMDLELKKLVASVAGGKYRRKA,0.157
15,HMDSVVPNVVGMTAEKANKALTDAGLNVKITGATIGSGAVVHSQSIPAGTVTSKGTVVSIEMRFAAAEGD,-0.193
16,HMGRLNMRRIRDVLRLKFGQGLSERQVAASLGLSKTSVGTYLHRARQAGLTWPLPQGLDDDGLELLLFP,0.0376
17,HMKITFNPVSSGRLDIILAEKTGYTRSYVKQLVEKQAVTINGEAAKKSGQNVKAGDEIALDEP,0.149
18,HMAEVPSLIGKSLDAAKQAIIDAGFKVGSVSYDNSDSYGKGQVMWQQYEPSTKVKKGSSISIKVSKGS,-0.121
19,HMVSATKAFVNGGNIVVSSPKATRVAVYNVAGQKVAEQAFAGKATIKASDFAKGIYVLKFNDNTVLKLT,-0.0226
20,HMTEYFTIESQEGERIDRYLSEELEDKSRSYIQKLIRDGHVLVDGKTVKAGYRLVAGDNIAITLPEI,-0.133
21,HMEPGEVQVDGLRFIAQPQERNDFEVALEQFRAGNFAAARKSFAAFINTYKQSGYLPSARFW,-0.152
22,HMVITQVSTTQTDTTFQYHKVKPKETLFSISRLYEVSIDEIKTINPALNSRELMAGELLKLPIK,-0.337
23,HMQSLAAKINGYIVAQRTSIAAIAKEIGYSRVTVSRYLAGKYDSDPTGIEAKLAAFLAGQTGEE,0.114
24,HMSVTYRLLITSSPGQAEVFLDGKRVGITPFSARLAAGWYQVRVSKEGYNLWEQHVQLREDQRLTATLT,0.229
25,HMEAEMLYQVKVKITNLVIRSGAGAIYPIVKRYASGVLPIYEEKNGYGKIAVGQWISLSPEFVERVD,-0.0106
26,HMLTLSGPEHAVVRALWPEPELDFDVLIRKTGLPSAQLMTLAMQLEMKKIIRRLPGRRLALMDDIRR,-0.716

row,Sequence,soluble fraction (log2)
1,HMGNNSIDIKDVIYNLVEISQLQAFDIVKHFKTWENLVNKPDELDTVIDGDSDIVDRIKYKIKSLS,-0.568
2,HMLAIKKGGIFAILGPNGSGKSTFSKVLAGHPAYTVVDGDIFFKGLSILDLEPEERSHLGIFLAFQ,-0.151
3,HMSNIIGNTAYSAIPDKQYFRLKSETAEKVANYLTENNIPFSGRINGDKTTLTIGQKNVDDYKAAVATVTG,0.304
4,HMDQVYYDLKSLIELLPADQMEVLKMRYFEELSFKKIAQKIDVSINTALGRMRYALINLRALSKKHHID,-1.02
5,HMVDFVNVVVPVKANYGGEAVVEFLDERLSEFGTEGIYRIELQGETMENPSPDYSQLKAKYHISEIVDRT,-0.375
6,HMTRILTEDDIVNFLIRQPDTAYIIAKSFNENERKVKELLDLLIKKNKVREEIVNGVVSYAVN,-0.208
7,HMEDLDKIISAYLDENPQIVSDYGKGNKKAVNSAIGFVMKSTGGKYSSSDIVDAVRSMIVSISV,-0.254
8,HMESLSHRQKSIVDWVQKNGYASIERMAEQFEVSAQTIRRDVIELSERRILQRHHGGASLPAG,-0.17
9,HMFTYDLSERELTIIELVAKGLNNKELADTLFLSEGTIRNYLSTLLNKLDLRDRTQLAIFYYQHL,-2.93
10,HMPKIPRLTLTETAGIMGVSQRALALAIQQGMYSWAQALPGRNKKRPIYFINAITFAKAQGIDLEEYK,-0.529
11,HMKIDLKQIEGVLDELAKVKGSLITILQKTQETYGYLPKEAIIYISERTGIAESEIMGVATFYTQFRL,-0.779
12,HMLPLGSNEYETAVIKHLASGVQDADEIQRLTGIDQTSLNTALTMLELAGTIRPLGNNHWTL,0.22
13,HMPLTAASLQTYLRGVDYPASKQDLIAHARKSDAPEDAITVLEQYSEQTYRSAADVSAEFGS,-0.156
14,HMKISDLPAAQVYREIVHAWPKAAAYADLAPINNGGMQRWRDVVHEWVLRGYNPANLRGMLEWYKAGIPTR,-0.132
15,HMEDVRSLTGPEKAAIILLSLGEEHGQGVWRMFDDEEVKEVSQIMANLGTISASVVEKLLVEFVSQMST,-1.5
16,HMKFHENLIALRRREGWSQEELGNRIGVTRQTVSKWELGLTTPELEKLVQLADVFGMTTDQLVGR,-0.111
17,HMPLITAIELDSISARSFQFNTQSGSTYFIEGSTDLKSWDVIAEVKATDSTTTYEDHRKIYHEAYFYRVRL,-1.55
18,HMEQSLNTYSIRTVKESLFLAETKNLNKIEKLVEGIEGRLTLSEALVLFSDKLNAMSVLSHVNANT,-0.273
19,HMNGEAQTMYVTARTLNVRKGPGTSYAKAGTLSRGTAVQVVGFSGNWAKLSNGYYVSTSYLAKI,0.0208
20,HMSRPLISNMLRLLNLPPTVQRKVAAGVISAGHARALLGLNDEKEIEKLANRIVAEGLSVRATEEIVAIA,-1.28
21,HMNPDDEMLLTYLTKLLVDKQFIVNSNDIFEYILRRVDRTYDGIYDIVSKLDVLSLEKKRQLTIPLIKEI,0.103
22,HMTNPPITTEARNLVVEQLKELNALHPEKARELADSYKKEFNVPKVIGHITEARHGEFLALAISKIDES,-0.399
23,HMANILKHKNKDGVITSYTIRVYHGYDEAGKRLRPYTMNYKPAPNMTARQIEKELNRQAVQFEEQIKNGYA,-0.182
24,HMNENYNLSKREKEVLDLLVNGKSYKVIATELAISYETVHSHIKKIYHKLHVSSIGEAVSKTIKQKIL,-0.561
25,HMKSDEGEIKKIVEEIISKNASVVEDYKKGKEVALQFLVGQGMKATKGSANPELLKKIILENI,-0.105
26,HMDVQPTTTKTMFYTVQQGETLFSISRKFGISVEEITKKNPLASSGLTVGMELLLPEKKEINSTIQS,-0.0195

row,Sequence,soluble fraction (log2)
1,HMRETELPVTIISAGRILAENLHLAGRDGGWLEAELKRRSLTAEQVLLLTVDAAGTVYLVRKEDL,-0.617
2,HMAVNSALVQRNWLIGYRIAEEELQGDNRAEYGASIIKKLAKELTAEYGKGYTKTNLYHFYSFYKT,-0.494
3,HMSAAELFEERQRQYLRGRKSTKNIADNHGTIILRAGETITDQAIDKAKVAGKLVELVMNNE,0.144
4,HMSELPLTQKVAIVMVALGEEASGEVMKHLSDYEIEEITQAIAGLKNISVELMDQILEEYEQHLIAG,-0.536
5,HMSREEFLTELRKALQGRVSQQTVNDNLRYYEEYILTESHKGKTEAEVIAELGNPRLLAKSIIDAENAT,-0.0903
6,HMTSNSLNLKDEISAFLTKNAGISYSAERIAHALNMDNADQFTPIIQTLAQLEREKKVRVTDKGEFEAVIK,0.229
7,HMSLAVFLQGLLEEKQLKKADVIRRTGMEPTYGYHIFDGHKKHPARSKVLLLALAMGLTVKEAQHLLYYAG,-0.544
8,HMESDRVAHVVAPGETLFSISGKYGIGMGELVAANPVLESRPPRTGDTLLIRLPENPLPAETDAETLS,-0.858
9,HMVMNYKKIGKKIADRRILLGITQEELAEKVDSSANYISNIETGIKSGSLIFYIKVANELKLSLDFLFSDE,-0.363
10,HMGTISKRINPSGTTVYRAVIRIRKNGYPNFTESRTFSKKSMAAEWVKRREAEIELNPDILFG,-0.0195
11,HMTSLAEQAYRHIRDKLSNGAFVPGEQLVNRVLATEIGVSVIPVREAINRLATEGLVKHVPGSGAFVRQ,0.197
12,HMDGTVRGKTTFQELLDWGVPQERIEAVLGGPIPAPGVVIKDYVTAQGKEFSAVRDALQAEVDAVLK,-0.229
13,HMDLSPEQAELAAIRGELGIKIDDYALALNIPRDRLTSYLYGRANVPAEVLISARELRYASSA,-0.128
14,HMSSLKKISIDELSPGMYVHSIVEQKGSVKIKSQGKVLKQAVVDALRKRGVKTLLIDLSKQFNPETGEP,0.346
15,HMLAPLAEMRGDTLDRLEKAVLELFSSRDFHEVSLQDVARRANVSLQTIYKYFGSKEALVYTMLDTLLGR,-0.87
16,HMGASTQLVEIKNAYENGEWQNVIDLAGKLHEKYNGSEEDKEAQEMAKNSQSKLDEAAAAKAAEEA,0.184
17,HMIKISDYLSEEDLNFIKEMEKIYPYFDFDSEGNLILTKSIDELKDKYGFDEAFVSRLDTVLNSR,-0.243
18,HMYAPKIETIQVPQDKIREVIGTGGKVIREIVETTGAKIDIGDTGLIKVASSDGEAIRAALDWINSIVAE,-0.758
19,HMKVKIFNGMKLVTNSTGLTVDGKPAALDESNADAKTYSQGLYVFIVYQSGKIAVMQDGKFLGYA,0.301
20,HMDSPRITMDQLRIGLYVYLDLTWFQHPFAFSHFKINSEDQIKTILGLGLKSVRYDPALSDPV,-0.645
21,HMGTVFTDIMTDIASGKFPNVFPDSLEAQIQKNVTMAPDKLSATLQYGDKSVILPTTKGKEAAEAAVKAA,-0.648
22,HMLKPVVLLGARGLTDAVEKEVERALDEHGLIKIHVPSDDREERDEIYTTLADKLNAARIQAIGKMLVLW,-0.00783
23,HMQLEPLVTSVIPVNFAKASDISGTIKGKEVGLLSERGNITAENRTNVLIVKDIRKSVDEINAMVKRLD,0.151
24,HMVEYIENINLSEKQKFIAHEILKEIRGRAIFLRDVGLDYLNLSRKAGTLSGGEAQRIRLATQIGSA,-0.347
